The source of these data is paper PMC2659761 (Journal of molecular biology, 2008).

Data set [1] deals with the molecule itself. The experiment in a line: SEC. In general terms: SEC sorts molecules by how far they enter the pores of the column.
Data set [2] concerns the target T1, Cif full-length (cycle inhibiting factor) (Escherichia coli (EPEC and EHEC)), P0DUW5.
T1 chain: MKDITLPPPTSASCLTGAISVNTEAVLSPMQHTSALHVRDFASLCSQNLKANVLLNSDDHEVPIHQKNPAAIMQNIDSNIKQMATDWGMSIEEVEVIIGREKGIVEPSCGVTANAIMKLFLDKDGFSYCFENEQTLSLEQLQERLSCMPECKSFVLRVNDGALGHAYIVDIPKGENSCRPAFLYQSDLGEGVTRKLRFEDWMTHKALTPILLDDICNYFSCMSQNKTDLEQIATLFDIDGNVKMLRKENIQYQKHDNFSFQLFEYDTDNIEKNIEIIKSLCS
The experiment in a line: SEC. As to conditions: remark: other sources report otherwise.

B1: Cif(100-282)-His, cycle inhibiting factor residues 100-282 with C-terminal His6 tag (the crystallized construct) (domain or fragment)
chain: REKGIVEPSCGVTANAIMKLFLDKDGFSYCFENEQTLSLEQLQERLSCMPECKSFVLRVNDGALGHAYIVDIPKGENSCRPAFLYQSDLGEGVTRKLRFEDWMTHKALTPILLDDICNYFSCMSQNKTDLEQIATLFDIDGNVKMLRKENIQYQKHDNFSFQLFEYDTDNIEKNIEIIKSLCS
A word on the stoichiometry N: it is a count of units in the complex or per binding partner. B1: the “stoichiometry N” value in data set [1] came out at 2.

B2: Cif full-length (cycle inhibiting factor), P0DUW5 1-282 (natural protein)
chain: T1 chain
B2 displayed a stoichiometry N in data set [2] of 2.
